The chains are these.
B2: KSHV major capsid protein (MCP) (natural protein)
chain: MEATLEQRPFPYLATEANLLTQIKESAADGLFKSFQLLLGKDAREGSVRFEALLGVYTNVVEFVKFLETALAAACVNTEFKDLRRMIDGKIQFKISMPTIAHGDGRRPNKQRQYIVMKACNKHHIGAEIELAAADIELLFAEKETPLDFTEYAGAIKTITSALQFGMDALERGLVDTVLAVKLRHAPPVFILKTLGDPVYSERGLKKAVKSDMVSMFKAHLIEHSFFLDKAELMTRGKQYVLTMLSDMLAAVCEDTVFKGVSTYTTASGQQVAGVLETTDSVMRRLMNLLGQVESAMSGPAAYASYVVRGANLVTAVSYGRAMRNFEQFMARIVDHPNALPSVEGDKAALADGHDEIQRTRIAASLVKIGDKFVAIESLQRMYNETQFPCPLNRRIQYTYFFPVGLHLPVPRYSTSVSVRGVESPAIQSTETWVVNKNNVPLCFGYQNALKSICHPRMHNPTQSAQALNQAFPDPDGGHGYGLRYEQTPNMNLFRTFHQYYMGKNVAFVPDVAQKALVTTEDLLHPTSHRLLRLEVHPFFDFFVHPCPGARGSYRATHRTMVGNIPQPLAPREFQESRGAQFDAVTNMTHVIDQLTIDVIQETAFDPAYPLFCYVIEAMIHGQEEKFVMNMPLIALVIQTYWVNSGKLAFVNSYHMVRFICTHMGNGSIPKEAHGHYRKILGELIALEQALLKLAGHETVGRTPITHLVSALLDPHLLPPFAYHDVFTDLMQKSSRQPIIKIGDQNYDNPQNRATFINLRGRMEDLVNNLVNIYQTRVNEDHDERHVLDVAPLDENDYNPVLEKLFYYVLMPVCSNGHMCGMGVDYQNVALTLTYNGPVFADVVNAQDDILLHLENGTLKDILQAGDIRPTVDMIRVLCTSFLTCPFVTQAARVITKRDPAQSFATHEYGKDVAQTVLVNGFGAFAVADRSREAAETMFYPVPFNKLYADPLVAATLHPLLANYVTRLPNQRNAVVFNVPSNLMAEYEEWHKSPVAAYAASCQATPGAISAMVSMHQKLSAPSFICQAKHRMHPGFAMTVVRTDEVLAEHILYCSRASTSMFVGLPSVVRREVRSDAVTFEITHEIASLHTALGYSSVIAPAHVAAITTDMGVHCQDLFMIFPGDAYQDRQLHDYIKMKAGVQTGSPGNRMDHVGYTAGVPRCENLPGLSHGQLATCEIIPTPVTSDVAYFQTPSNPRGRAACVVSCDAYSNESAERLLYDHSIPDPAYECRSTNNPWASQRGSLGDVLYNITFRQTALPGMYSPCRQFFHKEDIMRYNRGLYTLVNEYSARLAGAPATSTTDLQYVVVNGTDVFLDQPCHMLQEAYPTLAASHRVMLDEYMSNKQTHAPVHMGQYLIEEVAPMKRLLKLGNKVVY

What all share (test): cryo-EM structure
Data set [1] addresses KSHV triplex protein Tri1 (Kaposi's sarcoma-associated herpesvirus (KSHV)).
The target of data set [2] is KSHV triplex protein Tri2 (Kaposi's sarcoma-associated herpesvirus (KSHV)).
In data set [3] the target is B2.
Data set [4] deals with the molecule itself.

“And” between values parts separate entries of the source, which are not always exact repeats. Identical values can stand only once.

“KSHV triplex protein Tri2 (natural protein)”: the stoichiometry N in data set [1] and in data set [2] was 2 throughout.

B1: KSHV smallest capsid protein (SCP) (natural protein)
chain: MSNFKVRDPVIQERLDHDYAHHPLVARMNTLDQGNMSQAEYLVQKRHYLVFLIAHHYYEAYLRRMGGIQRRDHLQTLRDQKPRERADRVSAASAYDAGTFTVPSRPGPASGTTPGGQDSLGVSGSSITTLSSGPHSLSPASDILTTLSSTTETAAPAVADARKPPSGKKK
For the molecule B1, the binding result in data set [3] is listed as “binds”.
As to B2, the stoichiometry N – broadly, a count of units in the complex or per binding partner – in data set [4] was 5 and 6.
